The target of the test is mouse CD8 (mouse) (UniProt P01731). Description: cell ELISA on dried mouse thymocytes containing CD8+ cells, detection with biotinylated MO3. Background: ELISA stands for enzyme-linked immunosorbent assay.

For one substance, dilution of TLTF down to which a signal above background was obtained results are on record in US5891439.

Substance “native trypanosome-derived lymphocyte triggering factor (TLTF), antibody affinity purified (ligand)” showed a dilution of TLTF down to which a signal above background was obtained of 0.001 dilution.
